{
  "source": "patent CN114106174A",
  "target": "OX40 on OX40-overexpressing cells (OX40过表达细胞表面OX40) (UniProt P43489)",
  "sequence (P43489 29-277 limits assumed)": "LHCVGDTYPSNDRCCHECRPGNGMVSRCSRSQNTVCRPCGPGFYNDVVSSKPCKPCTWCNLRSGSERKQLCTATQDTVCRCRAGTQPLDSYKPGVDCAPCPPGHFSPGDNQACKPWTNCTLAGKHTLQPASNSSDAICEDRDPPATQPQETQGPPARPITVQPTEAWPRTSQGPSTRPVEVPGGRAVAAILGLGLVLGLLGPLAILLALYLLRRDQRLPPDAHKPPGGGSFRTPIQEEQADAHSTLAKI",
  "assay": "flow cytometry, positive control at 1 microgram/ml on OX40-overexpressing cells, goat anti-mouse IgG-PE",
  "data": [
    {"substance": "抗-OX40抗体 (clone ACT35, Biolegend) (antibody)", "values": [
      {"measurement": "Y586通道PE荧光值", "result": 210000}
    ]}
  ]
}
